According to patent US20220348665A1:
Residue numbers refer to the chain shown, from its start. Each block holds one binder with its values, some of them ahead of it.

Assays:
[1] = target: human IGF1R extracellular domain, recombinant, His tag at C-terminus (human) (UniProt P08069); experiment: ELISA on ECD of IGF1R, bispecific form
[2] = target: human IGF1R, endogenous, on the surface of breast cancer cell lines (MCF-7, JIMT-1, BT474) (human) (UniProt P08069); experiment: FACS on MCF-7 cells, antibody 10 ug/mL (2nd Ab only 2.86, not treated 1.88)
[3] = target: human IGF1R, endogenous, on the surface of breast cancer cell lines (MCF-7, JIMT-1, BT474) (human) (UniProt P08069); experiment: FACS on MCF-7 cells (2nd Ab only 2.92)
[4] = target: human IGF1R extracellular domain, recombinant, His tag at C-terminus (human) (UniProt P08069); experiment: SPR (Biacore T200), His-tagged human IGF1R ECD captured by anti-his antibody on CM4 chip, bivalent model

EC50 [1]: 0.107 nM
GeoMean, Internalization at 37° C. [2]: 7.23
B1: Hu3A9-C04 (bispecific antibody form of 1564 affinity variant C04) (bispecific antibody, part only; not given: humanized 3A9 IgG carrier, linker, not shown: another chain or arm of the molecule; a dimerising Fc or GST; large carriers; small tags and cut ends)
scFv: QSVLTQPPSASGTPGQRVTISCTGSSSNIGSNDVSWYQQLPGTAPKLLIYANSNRPSGVSDRFSGSKSGTSASLAISGLRSEDEADYYCGAWEQWLNGYVFGCGTKLTVLGGGGSGGGGSGGGGSGGGGSEVQLLESGGGLVQPGGSLRLSCAASGFTFSSYDMSWVRQAPGKCLEWVSAISYDNGNTYYADSVKGRFTISRDNSKNTLYLQMNSLRAEDTAVYYCAKGVLTTLMNWFDYWGQGTLVTVSS

GEOmean [3]: 3.88
B2: C04 (1564 affinity variant) in bispecific antibody form, backbone not stated (bispecific antibody, not shown: small tags and cut ends)
scFv: B1 scFv

GeoMean, Internalization at 37° C. [2]: 19.8
B3: hu3A9x1564_F06 (bispecific antibody: humanized 3A9 IgG with F06 scFv) (bispecific antibody, part only; not given: humanized 3A9 IgG carrier, linker, not shown: another chain or arm of the molecule; a dimerising Fc or GST; large carriers; small tags and cut ends)
scFv: B1 scFv with A91T, E93A, Q94G, W95S

Kd [4]: 478 nM
B4: F06 IgG (anti-IGF1R clone F06, full IgG1 form) (antibody, from a related filing, V domains shown)
VH: EVQLLESGGGLVQPGGSLRLSCAASGFTFSSYDMSWVRQAPGKGLEWVSAISYDNGNTYYADSVKGRFTISRDNSKNTLYLQMNSLRAEDTAVYYCAKGVLTTLMNWFDYWGQGTLVTVSS
VL: QSVLTQPPSASGTPGQRVTISCTGSSSNIGSNDVSWYQQLPGTAPKLLIYANSNRPSGVPDRFSGSKSGTSASLAISGLRSEDEADYYCGTWAGSLNGYVFGGGTKLTVL
